Literature values as cited in article PMC3310390.
Like-named read-outs stand apart in the source and are kept apart here.

Experiments:
[1] = biological target: Sir3 (Saccharomyces cerevisiae) (UniProt P06701)
[2] = biological target: Sir3 (Saccharomyces cerevisiae) (UniProt P06701); remark: listed apart in the source
[3] = biological target: Sir3 (Saccharomyces cerevisiae) (UniProt P06701); remark: listed apart in the source

For Sir2/Sir4 complex (from UniProt P06700), the Kd [1] is listed as 0.03 nM.
In the case of Sir3 (from UniProt P06701), the Kd [2] is listed as 2 nM.
For Sir2 (from UniProt P06700), the Kd [3] is given as 60 nM.
